# Measurements published in patent US7132397B1.
# Target: BMP receptors
ALPase activity in MC3T3-E1 cells (times higher than the control group),ALPase activity in C3H10T 1/2 cells (times higher than the control group),Binder
3,–,unmodified mature human MP52 (ligand) PLATRQGKRPSKNLKARCSRKALHVNFKDMGWDDWIIAPLEYEAFHCEGLCEFPLRSHLEPTNHAVIQTLMNSMDPESTPPTCCVPTRLSPISILFIDSANNVVYKQYEDMVVESCGCR
–,40,recombinant mature human BMP-2 (ligand) QAKHKQRKRLKSSCKRHPLYVDFSDVGWNDWIVAPPGYHAFYCHGECPFPLADHLNSTNHAIVQTLVNSVNSKIPKACCVPTELSAISMLYLDENEKVVLKNYQDMVVEGCGCR
